Target: Recombinant murine serum amyloid A isoform 1.1 (murine)
Assay: cross-linking; SAA-POPC complexes hydrolyzed by sPLA2-III (0.5 mg/ml protein) with glutaraldehyde 0.01-0.08%, 30 min at 24°C, 50 mM sodium phosphate, 150 mM NaCl, pH 7.5; quenched with 100 mM Tris; SDS PAGE

Question: “Recombinant murine serum amyloid A isoform 1.1 (natural protein)” was tested. Which stoichiometry N did it give?
Answer: 6

Source: paper PMC6557629
